Results published in the supplement of paper PMC9112550, “Optimization of the antimicrobial peptide Bac7 by deep mutational scanning” (BMC Biology, 2022).

What follows are sequences tested on Escherichia coli TOP10 (assay: shrunken log2 fold change of peptide-encoding DNA abundance (4.5 h post-induction vs induction); higher = less antimicrobial activity (less host growth inhibition)). Conditions: time post-induction: 4.5 h; library: site-saturation at positions 5, 18, 19, 20.
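Note: peptides expressed intracellularly from a pBAD plasmid library in pooled LB shake-flask culture, induced with 0.3% L-arabinose, DNA abundance read by NGS, three biological replicates, DESeq2 with apeglm shrinkage.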

Row | Sequence | shrunken log2 fold change
1 | RRIRWRPPRLPRPRPRPQYLPRP | -0.12
2 | RRIRDRPPRLPRPRPRPGKMPRP | 0.0346
3 | RRIRQRPPRLPRPRPRPNLMPRP | -0.196
4 | RRIRERPPRLPRPRPRPRPRPRP | 0.723
5 | RRIRRRPPRLPRPRPRPNFTPRP | 0.205
6 | RRIRRRPPRLPRPRPRPCGHPRP | -0.0448
7 | RRIRDRPPRLPRPRPRPLFEPRP | 0.7
8 | RRIRIRPPRLPRPRPRPSNNPRP | -0.656
9 | RRIRIRPPRLPRPRPRPSWIPRP | -0.411
10 | RRIRQRPPRLPRPRPRPSRTPRP | -0.29
11 | RRIRERPPRLPRPRPRPKAMPRP | 0.282
12 | RRIRNRPPRLPRPRPRPIGAPRP | 0.235
13 | RRIRVRPPRLPRPRPRPLVYPRP | -0.193
14 | RRIRSRPPRLPRPRPRPKKIPRP | 0.139
15 | RRIRIRPPRLPRPRPRPFVDPRP | -0.65
16 | RRIRGRPPRLPRPRPRPCYDPRP | 0.156
17 | RRIRARPPRLPRPRPRPMATPRP | 0.601
18 | RRIRKRPPRLPRPRPRPRTEPRP | 1.04
19 | RRIRSRPPRLPRPRPRPTDQPRP | 0.16
20 | RRIRNRPPRLPRPRPRPSKPPRP | -0.399
21 | RRIRERPPRLPRPRPRPSMNPRP | -0.573
22 | RRIRHRPPRLPRPRPRPNLYPRP | -0.012
23 | RRIRHRPPRLPRPRPRPQPLPRP | -0.0863
24 | RRIRYRPPRLPRPRPRPSWSPRP | -0.179
25 | RRIRERPPRLPRPRPRPPTKPRP | 0.774

Row | Sequence | shrunken log2 fold change
26 | RRIRFRPPRLPRPRPRPAIKPRP | -0.328
27 | RRIRLRPPRLPRPRPRPFINPRP | -0.572
28 | RRIRDRPPRLPRPRPRPCGIPRP | 0.0258
29 | RRIRTRPPRLPRPRPRPDSYPRP | -0.0896
30 | RRIRQRPPRLPRPRPRPEGTPRP | 0.231
31 | RRIRMRPPRLPRPRPRPLHYPRP | -0.173
32 | RRIRYRPPRLPRPRPRPILTPRP | -1.08
33 | RRIRVRPPRLPRPRPRPCDQPRP | -0.0149
34 | RRIRVRPPRLPRPRPRPTIRPRP | 0.0315
35 | RRIRERPPRLPRPRPRPMIYPRP | -0.12
36 | RRIRERPPRLPRPRPRPSNWPRP | -0.296
37 | RRIRWRPPRLPRPRPRPYSNPRP | -0.2
38 | RRIRWRPPRLPRPRPRPTIPPRP | -0.109
39 | RRIRIRPPRLPRPRPRPLGDPRP | -0.0585
40 | RRIRERPPRLPRPRPRPHEPPRP | -0.0545
41 | RRIRNRPPRLPRPRPRPVYPPRP | -0.341
42 | RRIRWRPPRLPRPRPRPIMEPRP | 0.0164
43 | RRIRLRPPRLPRPRPRPARQPRP | 0.281
44 | RRIRSRPPRLPRPRPRPLQAPRP | 0.302
45 | RRIRKRPPRLPRPRPRPGMQPRP | -0.00459
46 | RRIRSRPPRLPRPRPRPQIGPRP | -1.62
47 | RRIRWRPPRLPRPRPRPCKQPRP | -0.156
48 | RRIRTRPPRLPRPRPRPIKWPRP | 0.0186
49 | RRIRIRPPRLPRPRPRPPSCPRP | -0.0736
50 | RRIRPRPPRLPRPRPRPGNWPRP | 0.0527

Row | Sequence | shrunken log2 fold change
51 | RRIRVRPPRLPRPRPRPWNTPRP | -0.878
52 | RRIRRRPPRLPRPRPRPNWIPRP | 0.259
53 | RRIRCRPPRLPRPRPRPLHWPRP | 0.467
54 | RRIRGRPPRLPRPRPRPWLAPRP | 0.0824
55 | RRIRHRPPRLPRPRPRPSHPPRP | 0.0558
56 | RRIRDRPPRLPRPRPRPAGSPRP | 0.19
57 | RRIRGRPPRLPRPRPRPCLEPRP | 0.546
58 | RRIRIRPPRLPRPRPRPCYWPRP | -0.131
59 | RRIRNRPPRLPRPRPRPARDPRP | 0.27
60 | RRIRSRPPRLPRPRPRPWLEPRP | -0.0707
61 | RRIRKRPPRLPRPRPRPLFFPRP | 0.147
62 | RRIRARPPRLPRPRPRPMMMPRP | 0.246
63 | RRIRRRPPRLPRPRPRPYDGPRP | -0.101
64 | RRIRWRPPRLPRPRPRPVDFPRP | 0.0271
65 | RRIRARPPRLPRPRPRPQAGPRP | 0.195
66 | RRIRARPPRLPRPRPRPWGVPRP | 0.329
67 | RRIRMRPPRLPRPRPRPHCEPRP | -0.0828
68 | RRIRNRPPRLPRPRPRPCKNPRP | -0.0376
69 | RRIRARPPRLPRPRPRPLISPRP | -0.0384
70 | RRIRQRPPRLPRPRPRPQHDPRP | -0.477
71 | RRIRARPPRLPRPRPRPGEIPRP | 0.599
72 | RRIRMRPPRLPRPRPRPCIKPRP | 0.0207
73 | RRIRNRPPRLPRPRPRPKWWPRP | 0.0325
74 | RRIRGRPPRLPRPRPRPQDPPRP | 0.337
75 | RRIRNRPPRLPRPRPRPNVGPRP | -0.183

Row | Sequence | shrunken log2 fold change
76 | RRIRCRPPRLPRPRPRPGYNPRP | -0.88
77 | RRIRGRPPRLPRPRPRPWVDPRP | 0.308
78 | RRIRNRPPRLPRPRPRPINQPRP | -0.14
79 | RRIRTRPPRLPRPRPRPTTFPRP | -0.012
80 | RRIRIRPPRLPRPRPRPEWTPRP | -0.0261
81 | RRIRDRPPRLPRPRPRPGHWPRP | 0.315
82 | RRIRYRPPRLPRPRPRPKRQPRP | 0.00924
83 | RRIRNRPPRLPRPRPRPVVPPRP | 0.0751
84 | RRIRVRPPRLPRPRPRPIWYPRP | -0.146
85 | RRIRKRPPRLPRPRPRPDGVPRP | 0.154
86 | RRIRSRPPRLPRPRPRPQDVPRP | -0.277
87 | RRIRLRPPRLPRPRPRPWIKPRP | -0.187
88 | RRIRFRPPRLPRPRPRPCRHPRP | 0.0121
89 | RRIRNRPPRLPRPRPRPKGTPRP | 0.118
90 | RRIRKRPPRLPRPRPRPDGDPRP | 3.21
91 | RRIRNRPPRLPRPRPRPMAFPRP | -0.192
92 | RRIRTRPPRLPRPRPRPFCQPRP | 0.101
93 | RRIRQRPPRLPRPRPRPNDSPRP | -0.449
94 | RRIRERPPRLPRPRPRPHMHPRP | -0.687
95 | RRIRMRPPRLPRPRPRPELDPRP | 2.77
96 | RRIRKRPPRLPRPRPRPNVNPRP | -0.0135
97 | RRIRWRPPRLPRPRPRPWMMPRP | 0.119
98 | RRIRMRPPRLPRPRPRPPGSPRP | 0.904
99 | RRIRTRPPRLPRPRPRPDRRPRP | 0.0647
100 | RRIRIRPPRLPRPRPRPGHDPRP | 0.144

Row | Sequence | shrunken log2 fold change
101 | RRIRERPPRLPRPRPRPKKVPRP | -0.178
102 | RRIRGRPPRLPRPRPRPIDNPRP | 0.186
103 | RRIRTRPPRLPRPRPRPDLYPRP | 0.0261
104 | RRIRQRPPRLPRPRPRPQTRPRP | -0.0472
105 | RRIRARPPRLPRPRPRPSDQPRP | -0.0615
106 | RRIRPRPPRLPRPRPRPSPSPRP | 0.132
107 | RRIRSRPPRLPRPRPRPFWFPRP | -0.113
108 | RRIRNRPPRLPRPRPRPNSYPRP | -0.299
109 | RRIRRRPPRLPRPRPRPVKNPRP | 0.148
110 | RRIRIRPPRLPRPRPRPHRTPRP | -0.125
111 | RRIRHRPPRLPRPRPRPCTFPRP | -0.456
112 | RRIRHRPPRLPRPRPRPLHSPRP | -0.151
113 | RRIRFRPPRLPRPRPRPVWEPRP | 0.00583
114 | RRIRDRPPRLPRPRPRPCTRPRP | 0.0736
115 | RRIRMRPPRLPRPRPRPCESPRP | -0.0088
116 | RRIRRRPPRLPRPRPRPWIAPRP | -0.00369
117 | RRIRHRPPRLPRPRPRPSKWPRP | -0.452
118 | RRIRVRPPRLPRPRPRPFNVPRP | -0.185
119 | RRIRLRPPRLPRPRPRPPSAPRP | 0.654
120 | RRIRLRPPRLPRPRPRPQCDPRP | -0.118
121 | RRIRCRPPRLPRPRPRPVVWPRP | 0.354
122 | RRIRYRPPRLPRPRPRPENSPRP | -0.0207
123 | RRIRMRPPRLPRPRPRPDFKPRP | -0.11
124 | RRIRNRPPRLPRPRPRPVYWPRP | 0.0175
125 | RRIRHRPPRLPRPRPRPCYSPRP | -0.0983

Row | Sequence | shrunken log2 fold change
126 | RRIRQRPPRLPRPRPRPNWLPRP | 0.259
127 | RRIRKRPPRLPRPRPRPLCYPRP | -0.213
128 | RRIRGRPPRLPRPRPRPYPWPRP | 0.155
129 | RRIRYRPPRLPRPRPRPCPGPRP | -0.0926
130 | RRIRWRPPRLPRPRPRPGTSPRP | 0.304
131 | RRIRSRPPRLPRPRPRPQLDPRP | -0.191
132 | RRIRGRPPRLPRPRPRPFRFPRP | 0.485
133 | RRIRERPPRLPRPRPRPYWSPRP | -0.568
134 | RRIRPRPPRLPRPRPRPWGLPRP | 0.253
135 | RRIRLRPPRLPRPRPRPPCNPRP | -0.126
136 | RRIRARPPRLPRPRPRPCFEPRP | 0.438
137 | RRIRNRPPRLPRPRPRPILFPRP | -0.396
138 | RRIRARPPRLPRPRPRPKLRPRP | 0.178
139 | RRIRFRPPRLPRPRPRPKKTPRP | 0.0466
140 | RRIRTRPPRLPRPRPRPMQSPRP | -0.349
141 | RRIRVRPPRLPRPRPRPCIEPRP | -0.351
142 | RRIRNRPPRLPRPRPRPQVWPRP | 0.0895
143 | RRIRSRPPRLPRPRPRPETDPRP | 0.392
144 | RRIRTRPPRLPRPRPRPFTHPRP | -0.174
145 | RRIRERPPRLPRPRPRPRCRPRP | 0.113
146 | RRIRIRPPRLPRPRPRPQQWPRP | -0.421
147 | RRIRTRPPRLPRPRPRPGTRPRP | 0.2
148 | RRIRMRPPRLPRPRPRPDERPRP | 1.11
149 | RRIRKRPPRLPRPRPRPIIYPRP | 0.0162
150 | RRIRNRPPRLPRPRPRPCYIPRP | -0.33
